Data: patent US20170166631A1 (published 2017)
Where two headings read alike, the source gives them in different places.

T1: HD21 (huntingtin exon 1 protein with 21 polyQ repeats after cleavage of the GST tag; aggregation reaction) (human, UniProt P42858 1-88)
T1 chain: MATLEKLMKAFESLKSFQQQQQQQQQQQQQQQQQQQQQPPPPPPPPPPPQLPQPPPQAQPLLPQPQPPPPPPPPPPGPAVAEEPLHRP

T2: HD49 (huntingtin exon 1 protein with 49 polyQ repeats after cleavage of the GST tag; aggregation reaction) (human, UniProt P42858 1-88)
T2 chain: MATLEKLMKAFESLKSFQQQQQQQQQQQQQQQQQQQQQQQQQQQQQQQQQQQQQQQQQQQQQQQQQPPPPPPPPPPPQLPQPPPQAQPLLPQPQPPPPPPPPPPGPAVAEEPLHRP

T3: BSA-coupled synthetic peptide of the polyP repeat sequence of huntingtin exon 1 (coupled to BSA)
T3 peptide: PPPPPPPPPPP

B1: NI-302.15E8 (antibody, V domains shown)
VH: EVQLVESGGGLIQPGGSLRLSCAVSGFTVSSYSMNWVRQAPGKGLEWVSYTSSSRSNTKKYADSVKGRFTISRDNARNSLYLQMNSLRDEDTAVYYCARAGDFGELLTGEGYYGMDVWGQGTTVTVSS
VL: SYELTQPPSVSVSPGQTATITCSGDELGDKYVGWYQQKPGQSPLLVIYQDAKRPSGIPERFSGSNSGNTATLTISGTQAMDEADYYCQAWDSGTMVFGGGTRLTVL
B2: NI-302.33C11 (antibody, V domains shown)
VH: EVQLVESGGGVVQPGNSLRLSCAASGFRFSDFGMHWVRQAPGKGLEWLALIWYDGGYKYYADSVKGRFTISRDNSKNTMFLQMNSLRAEDTAVYYCATHLEYCSRTTCYLGHWGQGTLVTVSS
VL: DIQLTQSPSFLSASVGDTVTFTCRASQGISDYLAWFQQKPGIAPKLLIYAASTLQTGVPSRFSGSGSGTEFTLTIRSLQSEDFGTYYCQQLKTYPYTFGQGTKVEIK
B3: NI-302.35C1 (antibody, V domains shown)
VH: EVQLVESGGNLVQPGGSLRLSCTASGFTFSITALSWVRQAPEKGPQWVSAITGNAYGTYYADSVKGRFTISRDNAKNTLYLQMNGLRAEDTAIYYCVKGIASDSSGYSAFWGPGTLVTVSS
VL: EIVLTQSPATLSLSPGERATLSCRASQSVDNQFAWYQQKPGQAPRLLIYDASRRAPGIPDRFSGSGSGTDFTLTISSLEPEDFAIYYCQHRYTWLYTFGQGTRLEIK

Assays:
Test in all cases: ELISA
[1] = biological target: T4, GST-HttExon1Q21 (recombinant huntingtin exon 1 protein with 21 polyQ repeats fused to an N-terminal GST tag) (;human, UniProt P08515 1-218 = GST; P42858 1-88)
[2] = biological target: T1, HD21 (huntingtin exon 1 protein with 21 …)
[3] = biological target: T2, HD49 (huntingtin exon 1 protein with 49 …)
[4] = biological target: T4, GST-HttExon1Q21 (recombinant huntingtin …); remark: listed apart in the source
Target sequence in this assay (P08515 1-218, tags or fused parts left off): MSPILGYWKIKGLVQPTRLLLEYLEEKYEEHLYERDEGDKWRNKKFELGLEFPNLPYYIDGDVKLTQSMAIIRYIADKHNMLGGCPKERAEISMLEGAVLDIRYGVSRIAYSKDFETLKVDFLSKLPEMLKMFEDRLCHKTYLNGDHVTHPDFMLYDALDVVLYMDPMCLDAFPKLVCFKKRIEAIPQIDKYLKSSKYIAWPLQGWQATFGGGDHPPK

[5] = biological target: T1, HD21 (huntingtin exon 1 protein with 21 …)
[6] = biological target: T2, HD49 (huntingtin exon 1 protein with 49 …)
[7] = biological target: T4, GST-HttExon1Q21 (recombinant huntingtin …); remark: listed apart in the source
[8] = biological target: T1, HD21 (huntingtin exon 1 protein with 21 …)
[9] = biological target: T2, HD49 (huntingtin exon 1 protein with 49 …)
[10] = biological target: T3, BSA-coupled synthetic peptide of the …
[11] = biological target: T4, GST-HttExon1Q21 (recombinant huntingtin …); remark: listed apart in the source
[12] = biological target: T1, HD21 (huntingtin exon 1 protein with 21 …)

Binder | EC50 [1] [nM] | EC50 [2] [nM] | EC50 [3] [nM] | EC50 [4] [nM] | EC50 [5] [nM] | EC50 [6] [nM] | EC50 [7] [nM] | EC50 [8] [nM] | EC50 [9] [nM] | EC50 [10] [nM] | EC50 [11] [nM] | EC50 [12] [nM]
B1 | 9.3 | > 100 | > 100 | 9.3 | > 100 | > 100 |  |  |  |  |  | 
B2 |  |  |  | 0.11 | 0.13 | 0.15 | 0.11 | 0.13 | 0.15 | 0.1 |  | 
B3 |  |  |  | 4.6 | 7.9 |  |  |  |  |  | 4.6 | 7.9
